In the supplement of paper PMC12636428:

System: Saccharomyces cerevisiae
Assay: transcriptional activation domain activity (GFP:mCherry ratio, weighted mean of sorted bins, harmonized to initial dataset scale) (arbitrary fluorescence ratio units); higher = stronger transcriptional activation
Details: beta-estradiol 1 µM; induction time 4 h
How it was run: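 The activation activity of each tile is the read-weighted mean of bin median fluorescence, averaged across its barcodes and mapped linearly onto the scale of the initial dataset. Tiles were fused to an estradiol-inducible synthetic transcription factor, barcoded, and integrated at URA3 in yeast diploids carrying a GFP reporter. Induction used 1 uM beta-estradiol in SC for 4 hours at 30 °C, after which cells were sorted into 8 GFP:mCherry bins, and any tile with fewer than 50 reads was dropped.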

**Q.** For “KQRKAELIHHVVPLAVAAAFSIFLSGEDLEGPRIYHSMASLKVLRRLVAVISS”, which “transcriptional activation domain activity” value is on record?
**A.** 54400

**Q.** With “MSPPEQSGGAPKHRACDECRARKLACSKEPDGCARCKRESQVCHYSAQKPMGR” as the sequence, how does the “transcriptional activation domain activity” value read?
**A.** < 6570

**Q.** For “FKDNPKVIETKDKVMHYNTQLRYHGLRDHQVNIRNTRRHAIALLIWRVVQMVF”, which “transcriptional activation domain activity” value is on record?
**A.** 39500

**Q.** Which “transcriptional activation domain activity” value does the source give for “WYHYLPLCGTIFLILLPQPSWLWILVDFHLQTLHRPGLFIIHLLVSYTLIFMI” here?
**A.** 38500

**Q.** For “MFGIGFFSRVLPWLWLWLWLYFFFFFFLYIFCMHYEQFSLSLTYNKLPFSLAL”, which “transcriptional activation domain activity” value is on record?
**A.** 65900

**Q.** For “LHQSGITHVYYLVENYSKQILLSHFLLNDISFRGWIMLLRNMSFRSIRHCQST”, which “transcriptional activation domain activity” value is on record?
**A.** 54800

**Q.** How did the “transcriptional activation domain activity” value turn out when “VRRLLWVTVIFDICFGMLYVLLAIFQCRPISYYWLGWDGEHQGTCLNVNGLAW” was run?
**A.** 46600

**Q.** With “VCKHLKRQRISVDGSLKLISDMNHYFTYIETLKNNELLLYFKALRELSQIYLV” as the sequence, how does the “transcriptional activation domain activity” value read?
**A.** 70700

**Q.** How did the “transcriptional activation domain activity” value turn out when “EEEDGQSEPDSARAPRKAKSKTRAATDGEDESEARSKPKASRKGRRKVEASDA” was run?
**A.** 24000

**Q.** For “VIEKLFWRVSALYICTHQFLLWALFMIRDYLLSKYPGSQLVLRCHMVLKIMLF”, which “transcriptional activation domain activity” value is on record?
**A.** 46400

**Q.** How did the “transcriptional activation domain activity” value turn out when “CNVLFYLELVRALVLLHRWDLNTWMLQYSTKTMPPIQPTPLDDFVKYITTFPG” was run?
**A.** 42800

**Q.** For “VLLITLILSSRINITPVVHVNPSFSTVHLIIIPHFLCNIITLLIYFIVCWGST”, which “transcriptional activation domain activity” value is on record?
**A.** 56800

**Q.** For “LYLLIFFPVLLWRYLCIGLDSVLCCHIGFHFPYFMCYFFAIMSVSRSFFYSCI”, which “transcriptional activation domain activity” value is on record?
**A.** 50700

**Q.** Which “transcriptional activation domain activity” value does the source give for “MVFFTSSFLLGFFSFVSFRNHCSFFLMAPFLTGSELFLFFVLLFILFFFFGFG” here?
**A.** 48800

**Q.** How did the “transcriptional activation domain activity” value turn out when “MFMKHGDVSLGYEVCFCILIIITFGLSFFFFFFFHFFLFFHFWLFVSLLFFSD” was run?
**A.** 41900

**Q.** With “ALKKKDGDKDSADFLSQLRMGKSVLHGVDKEGRPVVSVRVRLHKGGEQTEKSL” as the sequence, how does the “transcriptional activation domain activity” value read?
**A.** 36600

**Q.** Which “transcriptional activation domain activity” value does the source give for “MSIFFSVIPPFFSFLPLMLFFFFFLGCLGNGSTFFVSTLLWMGGSIGLLSFYS” here?
**A.** 55600

**Q.** Which “transcriptional activation domain activity” value does the source give for “MFLPIVPFMLMLLRLLRLLRLLMLLMLLMLLPLFLFLFLLVMLCLFPLILLLL” here?
**A.** 56200

**Q.** With “STIHNLFEVVLLPDLCGFCCFSMRFVVLVDLVGTLTLPVTVVYLIYLIYVIAS” as the sequence, how does the “transcriptional activation domain activity” value read?
**A.** 54400

**Q.** How did the “transcriptional activation domain activity” value turn out when “KADEPAVEENGAKEDDSAKKQKTNGETETEKKGKGRGRPKKADGEKKAPAKKR” was run?
**A.** 21400

**Q.** “KKEAAAAKKEPAKRKKTKADEEDKESAEGTESDEESKPKKKKAAPKKKGAATA” was tested. Which “transcriptional activation domain activity” value did it give?
**A.** 20600

**Q.** “AAEEKEGYEDEAEEGEDEEEDEEDPEVRRKEELRARMAKMSAGMGGMGGMGMM” was tested. Which “transcriptional activation domain activity” value did it give?
**A.** 10100

**Q.** For “MSLSFFFFSFFFLFFIIIFGRSRWLCYDGFGFFFFSFFLLMLAVFLFLLTYFT”, which “transcriptional activation domain activity” value is on record?
**A.** 50800

**Q.** How did the “transcriptional activation domain activity” value turn out when “EKKEKSSRKSTSRAAANGTAEKASKGEASSKKSRGASRPRSPKKTRSPAGRPA” was run?
**A.** 24500

**Q.** How did the “transcriptional activation domain activity” value turn out when “DVNTGATSAPLSVGDVRHVAAPLEESGGCTLAMLVDDDGVMRIVVLRVTVDPV” was run?
**A.** 35300

**Q.** Which “transcriptional activation domain activity” value does the source give for “PVNYLRLTNIGVCDMDDGYDLACHLMLNEPDADSCALLRVLIHRLKECTNLNI” here?
**A.** 47100

**Q.** Which “transcriptional activation domain activity” value does the source give for “LFLFLCLFSPPINNPPFSSLIGEFLPLILSSWFYSFLISVWWNRWEKAFSWWL” here?
**A.** 33800

**Q.** “AANFHDTHGFGSMPQHLKKKPKAEGEGAGKAEEVKAEVSATAEAEESATAKAE” was tested. Which “transcriptional activation domain activity” value did it give?
**A.** 34800

**Q.** Which “transcriptional activation domain activity” value does the source give for “MIWREFFLFFLFFFFLFGIYGLRVAGLDYFVYGDLFVIINISYLFFWWVYAIY” here?
**A.** 45900

**Q.** For “DLARSQKFILCSIKHWGSYLFLFFSCRSFNLFFNHSYFSFCLNISFFLCSVFL”, which “transcriptional activation domain activity” value is on record?
**A.** 77800

**Q.** How did the “transcriptional activation domain activity” value turn out when “VEFLFPIYATVAFTTLGCISMFALPYAVLTILPNFYLNCPYGTPLSGVTWRLS” was run?
**A.** 61600

**Q.** “AAKPAPKKAPGRPKKAAAEPEPASEPTESEEPKPKKAGGRPRKAAAPAAEPEA” was tested. Which “transcriptional activation domain activity” value did it give?
**A.** 40700

**Q.** Which “transcriptional activation domain activity” value does the source give for “SKQAGVGGEDEGEEDVPEDFGHSDNIRKKLLEVLGRDRRDRVLSSLYIVRADG” here?
**A.** 43800

**Q.** Which “transcriptional activation domain activity” value does the source give for “LDRTVEAFRHADALRDVHLYGMVFSYFKMPLWQLTRFSGDIIGLNEYLLLFYN” here?
**A.** 38000

**Q.** “GILVLLLVYSNLVLLIYHPPTSKRPLDHLFIHVPIRLFLILPLSLMFPYSLLY” was tested. Which “transcriptional activation domain activity” value did it give?
**A.** 43900

**Q.** For “EIESVVMLYVSGRLLRIIEVGLVEGRPDVQAIVQALVARLICVTVSATAKWAR”, which “transcriptional activation domain activity” value is on record?
**A.** 36000

**Q.** For “VPRKLTASIHHPVEGLFYGTYWVSISLILNCAHAYGVPSSGPWLVRALEVCFW”, which “transcriptional activation domain activity” value is on record?
**A.** 64800

**Q.** Which “transcriptional activation domain activity” value does the source give for “FVCVASAIGGVGYLLLLTVAENVHVRYFATFCIVSGTYTTIGIVIAWFAHNLG” here?
**A.** 48700

**Q.** How did the “transcriptional activation domain activity” value turn out when “MYSIGVLTWKHDIGFFEDLLWSWCRVCFERYYTNVSPCTKLLSMELLLNCLLG” was run?
**A.** 69100

**Q.** Which “transcriptional activation domain activity” value does the source give for “QKLSWIDNSGFRWLIMPFIWSSFFIQWLAVFFEICIVILQLRVIAWWLGWLVC” here?
**A.** 60700

**Q.** For “YNGLPRFKWFISTVWVIYAGSCLLPFAGMVGTQILPLNRCIGVFKKPYPAILF”, which “transcriptional activation domain activity” value is on record?
**A.** 63300
